Values joined by “and” are separate entries in the source; they are usually repeats but may differ in a detail not shown here. Equal values may be shown once. * marks the point of attachment. Stearoyl = CCCCCCCCCCCCCCCCCC(=O)*; Palmitoyl = CCCCCCCCCCCCCCCC(=O)*; Lauroyl = CCCCCCCCCCCC(=O)*; Octanoyl = CCCCCCCC(=O)*
Biological target: T1, N39 (HIV-1, N-terminal acetyl (Ac-); C-terminal amide (-NH2))
T1 peptide: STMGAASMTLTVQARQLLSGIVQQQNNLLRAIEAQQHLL
Assay: circular dichroism temperature scan at 220 nm of the 1:1 mixture with N39, 10 µM each in PBS pH 7.2

Binder	Tm value of the complex
Ac-LEANIEELLKKAEEQQKKNEEELKKLEK(Palmitoyl)-NH2 (SMILES CCCCCCCCCCCCCCCC(=O)NCCCC[C@H](NC(=O)[C@H](CCC(=O)O)NC(=O)[C@H](CC(C)C)NC(=O)[C@H](CCCCN)NC(=O)[C@H](CCCCN)NC(=O)[C@H](CC(C)C)NC(=O)[C@H](CCC(=O)O)NC(=O)[C@H](CCC(=O)O)NC(=O)[C@H](CCC(=O)O)NC(=O)[C@H](CC(N)=O)NC(=O)[C@H](CCCCN)NC(=O)[C@H](CCCCN)NC(=O)[C@H](CCC(N)=O)NC(=O)[C@H](CCC(N)=O)NC(=O)[C@H](CCC(=O)O)NC(=O)[C@H](CCC(=O)O)NC(=O)[C@H](C)NC(=O)[C@H](CCCCN)NC(=O)[C@H](CCCCN)NC(=O)[C@H](CC(C)C)NC(=O)[C@H](CC(C)C)NC(=O)[C@H](CCC(=O)O)NC(=O)[C@H](CCC(=O)O)NC(=O)[C@@H](NC(=O)[C@H](CC(N)=O)NC(=O)[C@H](C)NC(=O)[C@H](CCC(=O)O)NC(=O)[C@H](CC(C)C)NC(C)=O)[C@@H](C)CC)C(N)=O) [LP-51]	72 °C
Ac-WEQKIEELLKKAEEQQKKNEEELKKLEK(Palmitoyl)-NH2 [LP-52]	79.1 °C
Ac-WEQKIEELLKKAEEQQKKNEEELKK(Palmitoyl)-NH2 (SMILES CCCCCCCCCCCCCCCC(=O)NCCCC[C@H](NC(=O)[C@H](CCCCN)NC(=O)[C@H](CC(C)C)NC(=O)[C@H](CCC(=O)O)NC(=O)[C@H](CCC(=O)O)NC(=O)[C@H](CCC(=O)O)NC(=O)[C@H](CC(N)=O)NC(=O)[C@H](CCCCN)NC(=O)[C@H](CCCCN)NC(=O)[C@H](CCC(N)=O)NC(=O)[C@H](CCC(N)=O)NC(=O)[C@H](CCC(=O)O)NC(=O)[C@H](CCC(=O)O)NC(=O)[C@H](C)NC(=O)[C@H](CCCCN)NC(=O)[C@H](CCCCN)NC(=O)[C@H](CC(C)C)NC(=O)[C@H](CC(C)C)NC(=O)[C@H](CCC(=O)O)NC(=O)[C@H](CCC(=O)O)NC(=O)[C@@H](NC(=O)[C@H](CCCCN)NC(=O)[C@H](CCC(N)=O)NC(=O)[C@H](CCC(=O)O)NC(=O)[C@H](Cc1c[nH]c2ccccc12)NC(C)=O)[C@@H](C)CC)C(N)=O, LP-52 without the C-terminal LEK) [LP-55]	63.1 °C
Ac-EQKIEELLKKAEEQQKKNEEELKKLEK(Palmitoyl)-NH2 (SMILES CCCCCCCCCCCCCCCC(=O)NCCCC[C@H](NC(=O)[C@H](CCC(=O)O)NC(=O)[C@H](CC(C)C)NC(=O)[C@H](CCCCN)NC(=O)[C@H](CCCCN)NC(=O)[C@H](CC(C)C)NC(=O)[C@H](CCC(=O)O)NC(=O)[C@H](CCC(=O)O)NC(=O)[C@H](CCC(=O)O)NC(=O)[C@H](CC(N)=O)NC(=O)[C@H](CCCCN)NC(=O)[C@H](CCCCN)NC(=O)[C@H](CCC(N)=O)NC(=O)[C@H](CCC(N)=O)NC(=O)[C@H](CCC(=O)O)NC(=O)[C@H](CCC(=O)O)NC(=O)[C@H](C)NC(=O)[C@H](CCCCN)NC(=O)[C@H](CCCCN)NC(=O)[C@H](CC(C)C)NC(=O)[C@H](CC(C)C)NC(=O)[C@H](CCC(=O)O)NC(=O)[C@H](CCC(=O)O)NC(=O)[C@@H](NC(=O)[C@H](CCCCN)NC(=O)[C@H](CCC(N)=O)NC(=O)[C@H](CCC(=O)O)NC(C)=O)[C@@H](C)CC)C(N)=O, N-terminally truncated, based on LP-52) [LP-62]	> 70 °C
Ac-QKIEELLKKAEEQQKKNEEELKKLEK(Palmitoyl)-NH2 (SMILES CCCCCCCCCCCCCCCC(=O)NCCCC[C@H](NC(=O)[C@H](CCC(=O)O)NC(=O)[C@H](CC(C)C)NC(=O)[C@H](CCCCN)NC(=O)[C@H](CCCCN)NC(=O)[C@H](CC(C)C)NC(=O)[C@H](CCC(=O)O)NC(=O)[C@H](CCC(=O)O)NC(=O)[C@H](CCC(=O)O)NC(=O)[C@H](CC(N)=O)NC(=O)[C@H](CCCCN)NC(=O)[C@H](CCCCN)NC(=O)[C@H](CCC(N)=O)NC(=O)[C@H](CCC(N)=O)NC(=O)[C@H](CCC(=O)O)NC(=O)[C@H](CCC(=O)O)NC(=O)[C@H](C)NC(=O)[C@H](CCCCN)NC(=O)[C@H](CCCCN)NC(=O)[C@H](CC(C)C)NC(=O)[C@H](CC(C)C)NC(=O)[C@H](CCC(=O)O)NC(=O)[C@H](CCC(=O)O)NC(=O)[C@@H](NC(=O)[C@H](CCCCN)NC(=O)[C@H](CCC(N)=O)NC(C)=O)[C@@H](C)CC)C(N)=O, N-terminally truncated, based on LP-52; also called P63 with C16) [LP-63]	> 70 °C
Ac-KIEELLKKAEEQQKKNEEELKKLEK(Palmitoyl)-NH2 (SMILES CCCCCCCCCCCCCCCC(=O)NCCCC[C@H](NC(=O)[C@H](CCC(=O)O)NC(=O)[C@H](CC(C)C)NC(=O)[C@H](CCCCN)NC(=O)[C@H](CCCCN)NC(=O)[C@H](CC(C)C)NC(=O)[C@H](CCC(=O)O)NC(=O)[C@H](CCC(=O)O)NC(=O)[C@H](CCC(=O)O)NC(=O)[C@H](CC(N)=O)NC(=O)[C@H](CCCCN)NC(=O)[C@H](CCCCN)NC(=O)[C@H](CCC(N)=O)NC(=O)[C@H](CCC(N)=O)NC(=O)[C@H](CCC(=O)O)NC(=O)[C@H](CCC(=O)O)NC(=O)[C@H](C)NC(=O)[C@H](CCCCN)NC(=O)[C@H](CCCCN)NC(=O)[C@H](CC(C)C)NC(=O)[C@H](CC(C)C)NC(=O)[C@H](CCC(=O)O)NC(=O)[C@H](CCC(=O)O)NC(=O)[C@@H](NC(=O)[C@H](CCCCN)NC(C)=O)[C@@H](C)CC)C(N)=O, N-terminally truncated, based on LP-52) [LP-64]	> 70 °C
Ac-IEELLKKAEEQQKKNEEELKKLEK(Palmitoyl)-NH2 (SMILES CCCCCCCCCCCCCCCC(=O)NCCCC[C@H](NC(=O)[C@H](CCC(=O)O)NC(=O)[C@H](CC(C)C)NC(=O)[C@H](CCCCN)NC(=O)[C@H](CCCCN)NC(=O)[C@H](CC(C)C)NC(=O)[C@H](CCC(=O)O)NC(=O)[C@H](CCC(=O)O)NC(=O)[C@H](CCC(=O)O)NC(=O)[C@H](CC(N)=O)NC(=O)[C@H](CCCCN)NC(=O)[C@H](CCCCN)NC(=O)[C@H](CCC(N)=O)NC(=O)[C@H](CCC(N)=O)NC(=O)[C@H](CCC(=O)O)NC(=O)[C@H](CCC(=O)O)NC(=O)[C@H](C)NC(=O)[C@H](CCCCN)NC(=O)[C@H](CCCCN)NC(=O)[C@H](CC(C)C)NC(=O)[C@H](CC(C)C)NC(=O)[C@H](CCC(=O)O)NC(=O)[C@H](CCC(=O)O)NC(=O)[C@@H](NC(C)=O)[C@@H](C)CC)C(N)=O, N-terminally truncated, based on LP-52; 24 amino acids) [LP-65]	> 70 °C and 72.1 °C
Ac-WEQKIEELLKKAEEQQKKNEEELKKLEK(Lauroyl)-NH2 [LP-81]	74.1 °C
Ac-WEQKIEELLKKAEEQQKKNEEELKKLEK(Octanoyl)-NH2 [LP-82]	65.1 °C
Ac-EQKIEELLKKAEEQQKKNEEELKKLEK(Stearoyl)-NH2 (SMILES CCCCCCCCCCCCCCCCCC(=O)NCCCC[C@H](NC(=O)[C@H](CCC(=O)O)NC(=O)[C@H](CC(C)C)NC(=O)[C@H](CCCCN)NC(=O)[C@H](CCCCN)NC(=O)[C@H](CC(C)C)NC(=O)[C@H](CCC(=O)O)NC(=O)[C@H](CCC(=O)O)NC(=O)[C@H](CCC(=O)O)NC(=O)[C@H](CC(N)=O)NC(=O)[C@H](CCCCN)NC(=O)[C@H](CCCCN)NC(=O)[C@H](CCC(N)=O)NC(=O)[C@H](CCC(N)=O)NC(=O)[C@H](CCC(=O)O)NC(=O)[C@H](CCC(=O)O)NC(=O)[C@H](C)NC(=O)[C@H](CCCCN)NC(=O)[C@H](CCCCN)NC(=O)[C@H](CC(C)C)NC(=O)[C@H](CC(C)C)NC(=O)[C@H](CCC(=O)O)NC(=O)[C@H](CCC(=O)O)NC(=O)[C@@H](NC(=O)[C@H](CCCCN)NC(=O)[C@H](CCC(N)=O)NC(=O)[C@H](CCC(=O)O)NC(C)=O)[C@@H](C)CC)C(N)=O) [LP-88]	76.5 °C
Ac-KIEELLKKAEEQQKKNEEELKKLEK(Stearoyl)-NH2 (SMILES CCCCCCCCCCCCCCCCCC(=O)NCCCC[C@H](NC(=O)[C@H](CCC(=O)O)NC(=O)[C@H](CC(C)C)NC(=O)[C@H](CCCCN)NC(=O)[C@H](CCCCN)NC(=O)[C@H](CC(C)C)NC(=O)[C@H](CCC(=O)O)NC(=O)[C@H](CCC(=O)O)NC(=O)[C@H](CCC(=O)O)NC(=O)[C@H](CC(N)=O)NC(=O)[C@H](CCCCN)NC(=O)[C@H](CCCCN)NC(=O)[C@H](CCC(N)=O)NC(=O)[C@H](CCC(N)=O)NC(=O)[C@H](CCC(=O)O)NC(=O)[C@H](CCC(=O)O)NC(=O)[C@H](C)NC(=O)[C@H](CCCCN)NC(=O)[C@H](CCCCN)NC(=O)[C@H](CC(C)C)NC(=O)[C@H](CC(C)C)NC(=O)[C@H](CCC(=O)O)NC(=O)[C@H](CCC(=O)O)NC(=O)[C@@H](NC(=O)[C@H](CCCCN)NC(C)=O)[C@@H](C)CC)C(N)=O) [LP-89]	70 °C
Ac-IEELLKKAEEQQKKNEEELKKLEK(Stearoyl)-NH2 [LP-90]	71.1 °C
Ac-WEQKIEELLKKAEEQQKKNEEELKK(Stearoyl)-NH2 [LP-91]	61 °C
Ac-IEELLKKAEEQQKKNEEELKK(Stearoyl)-NH2 (SMILES CCCCCCCCCCCCCCCCCC(=O)NCCCC[C@H](NC(=O)[C@H](CCCCN)NC(=O)[C@H](CC(C)C)NC(=O)[C@H](CCC(=O)O)NC(=O)[C@H](CCC(=O)O)NC(=O)[C@H](CCC(=O)O)NC(=O)[C@H](CC(N)=O)NC(=O)[C@H](CCCCN)NC(=O)[C@H](CCCCN)NC(=O)[C@H](CCC(N)=O)NC(=O)[C@H](CCC(N)=O)NC(=O)[C@H](CCC(=O)O)NC(=O)[C@H](CCC(=O)O)NC(=O)[C@H](C)NC(=O)[C@H](CCCCN)NC(=O)[C@H](CCCCN)NC(=O)[C@H](CC(C)C)NC(=O)[C@H](CC(C)C)NC(=O)[C@H](CCC(=O)O)NC(=O)[C@H](CCC(=O)O)NC(=O)[C@@H](NC(C)=O)[C@@H](C)CC)C(N)=O) [LP-92]	55.1 °C

Biological target: T1, N39
Assay: circular dichroism of the 1:1 mixture with N39, 10 µM each in PBS pH 7.2

Binder	helix content of the complex [%]
Ac-WEQKIEELLKKAEEQQKKNEEELKKLEK(Palmitoyl)-NH2 [LP-52]	63.8
Ac-IEELLKKAEEQQKKNEEELKKLEK(Palmitoyl)-NH2 (SMILES CCCCCCCCCCCCCCCC(=O)NCCCC[C@H](NC(=O)[C@H](CCC(=O)O)NC(=O)[C@H](CC(C)C)NC(=O)[C@H](CCCCN)NC(=O)[C@H](CCCCN)NC(=O)[C@H](CC(C)C)NC(=O)[C@H](CCC(=O)O)NC(=O)[C@H](CCC(=O)O)NC(=O)[C@H](CCC(=O)O)NC(=O)[C@H](CC(N)=O)NC(=O)[C@H](CCCCN)NC(=O)[C@H](CCCCN)NC(=O)[C@H](CCC(N)=O)NC(=O)[C@H](CCC(N)=O)NC(=O)[C@H](CCC(=O)O)NC(=O)[C@H](CCC(=O)O)NC(=O)[C@H](C)NC(=O)[C@H](CCCCN)NC(=O)[C@H](CCCCN)NC(=O)[C@H](CC(C)C)NC(=O)[C@H](CC(C)C)NC(=O)[C@H](CCC(=O)O)NC(=O)[C@H](CCC(=O)O)NC(=O)[C@@H](NC(C)=O)[C@@H](C)CC)C(N)=O, N-terminally truncated, based on LP-52; 24 amino acids) [LP-65]	63
